Results from patent publication US20180037644A1 (Pfizer, published 2018).
Read-outs that look alike come from different tables or passages of the source.

Experiments:
[1] = target: T1, human IL-33 (mm2) (human, UniProt O95760 112-270); test: cell-based or functional assay
T1 chain: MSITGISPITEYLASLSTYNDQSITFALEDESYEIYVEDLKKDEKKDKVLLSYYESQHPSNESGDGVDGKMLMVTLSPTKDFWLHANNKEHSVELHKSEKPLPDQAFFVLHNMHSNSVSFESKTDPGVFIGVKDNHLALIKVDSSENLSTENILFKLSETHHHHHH

[2] = target: T2, human IL-33 WT (R&D) (human, UniProt O95760 112-270); test: cell-based or functional assay
T2 sequence: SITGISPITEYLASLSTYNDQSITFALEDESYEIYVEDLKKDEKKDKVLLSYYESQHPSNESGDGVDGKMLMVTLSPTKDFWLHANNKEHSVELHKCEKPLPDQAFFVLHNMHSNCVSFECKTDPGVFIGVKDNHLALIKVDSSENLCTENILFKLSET

[3] = target: T3, cynomolgus monkey IL-33 (cys mut) (cynomolgus monkey); test: cell-based or functional assay
T3 chain: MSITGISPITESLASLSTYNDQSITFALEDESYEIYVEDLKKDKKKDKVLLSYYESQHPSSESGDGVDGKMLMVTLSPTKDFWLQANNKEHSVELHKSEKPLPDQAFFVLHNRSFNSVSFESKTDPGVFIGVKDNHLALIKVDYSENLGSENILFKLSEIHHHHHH

[4] = target: T1, human IL-33 (mm2); test: cell-based or functional assay
[5] = target: T1, human IL-33 (mm2); test: cell-based or functional assay
[6] = target: T2, human IL-33 WT (R&D); test: cell-based or functional assay; remark: listed apart in the source
[7] = target: T1, human IL-33 (mm2); test: cell-based or functional assay
[8] = target: T2, human IL-33 WT (R&D); test: cell-based or functional assay; remark: listed apart in the source
[9] = target: T1, human IL-33 (mm2); test: cell-based or functional assay
[10] = target: T2, human IL-33 WT (R&D); test: cell-based or functional assay; remark: listed apart in the source
[11] = target: T3, cynomolgus monkey IL-33 (cys mut); test: cell-based or functional assay
[12] = target: T4, wild-type cynomolgus monkey IL-33 (cynomolgus monkey); test: cell-based or functional assay
T4 chain: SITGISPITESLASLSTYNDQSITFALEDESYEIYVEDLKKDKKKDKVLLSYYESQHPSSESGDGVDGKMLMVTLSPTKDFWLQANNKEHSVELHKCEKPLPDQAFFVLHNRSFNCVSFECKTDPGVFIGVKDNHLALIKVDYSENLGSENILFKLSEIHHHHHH

[13] = target: T1, human IL-33 (mm2); test: cell-based or functional assay
[14] = target: T2, human IL-33 WT (R&D); test: cell-based or functional assay; remark: listed apart in the source
[15] = target: T3, cynomolgus monkey IL-33 (cys mut); test: cell-based or functional assay
[16] = target: T4, wild-type cynomolgus monkey IL-33; test: cell-based or functional assay
[17] = target: T2, human IL-33 WT (R&D); test: Octet, captured on anti-Fc tip; IL-33 premixed with IL33-158LS (competitor)

B1: IL33-158LS (antibody, human IgG1, kappa)
heavy: EVQLVESGGGLVQPGGSLRLSCAASGFTFSSYWMYWVRQAPGKGLEWVAAITPNAGEDYYPESVKGRFTISRDNAKNSLYLQMNSLRAEDTAVYYCARGHYYYTSYSLGYWGQGTLVTVSSASTKGPSVFPLAPSSKSTSGGTAALGCLVKDYFPEPVTVSWNSGALTSGVHTFPAVLQSSGLYSLSSVVTVPSSSLGTQTYICNVNHKPSNTKVDKKVEPKSCDKTHTCPPCPAPEAAGAPSVFLFPPKPKDTLMISRTPEVTCVVVDVSHEDPEVKFNWYVDGVEVHNAKTKPREEQYNSTYRVVSVLTVLHQDWLNGKEYKCKVSNKALPAPIEKTISKAKGQPREPQVYTLPPSREEMTKNQVSLTCLVKGFYPSDIAVEWESNGQPENNYKTTPPVLDSDGSFFLYSKLTVDKSRWQQGNVFSCSVLHEALHSHYTQKSLSLSPG
light: DIQMTQSPSSLSASVGDRVTITCKASQNINKHLDWYQQKPGKAPKLLIYFTNNLQTGVPSRFSGSGSGTDFTLTISSLQPEDFATYYCFQYNQGWTFGGGTKVEIKRTVAAPSVFIFPPSDEQLKSGTASVVCLLNNFYPREAKVQWKVDNALQSGNSQESVTEQDSKDSTYSLSSTLTLSKADYEKHKVYACEVTHQGLSSPVTKSFNRGEC
[1]
  IC50, HEK293 ST2 NFkB: 0.162 nM
[2]
  IC50, HEK293 ST2 NFkB: 0.983 nM
[3]
  IC50, HEK293 ST2 NFkB: 0.198 nM
[4]
  IC50, IFN-γ production in human PBMC: 0.0014 nM
[5]
  IC50, human whole blood: 0.021 nM
[6]
  IC50, human whole blood: 0.868 nM
[7]
  IC50, HEK293 ST2 NFkB: 0.079 nM
[8]
  IC50, HEK293 ST2 NFkB: 2.66 nM
[9]
  IC50, HEK293 ST2 NFkB: 0.019 nM
[10]
  IC50, HEK293 ST2 NFkB (DTT-pretreated IL-33): 0.331 nM
[11]
  Cynomolgus monkey:human IC50 ratio: cysteine mutant IL-33: 1.8
  IC50, HEK293 ST2 NFkB: 0.034 nM
[12]
  Cynomolgus monkey:human IC50 ratio: wild-type IL-33: 4.2
  IC50, HEK293 ST2 NFkB (DTT-pretreated IL-33): 1.39 nM
[13]
  IC50, HEK293 ST2 NFkB: 0.009 nM
[14]
  IC50, HEK293 ST2 NFkB: 0.061 nM
[15]
  Cynomolgus monkey:human IC50 ratio: cysteine mutant IL-33: 1.4
  IC50, HEK293 ST2 NFkB: 0.013 nM
[16]
  Cynomolgus monkey:human IC50 ratio: wild-type IL-33: 9.2
  IC50, HEK293 ST2 NFkB: 0.562 nM

B2: IL33-271 (antibody, human IgG1, kappa, V domains shown)
VH: QVLLVQSGAEVKKPGATVKVSCKASGSTFTGYYMHWVRQAPGQGLEWMGWINPNNGGTNYAQKFQGRVTMTRDTSISTAYMELSRLRSDDTAVYYCARELRYNWKSWGQGTLVTVSS
VL: EIVLTQSPGTLSLSPGERVTLSCRASQSVGRPYLAWYQQIPGQAPRLLIYGASSRATDIPDRFSGNGSGTDFTLTISRLEPEDFAVYYCQQYDNSPYTFGQGTRLEIKR
notes: also called control non-neutralizing anti-IL-33 antibody
[17]
  binding result: binds
